Measured values from patent US20140308287A1 (SEA LANE BIOTECHNOLOGIES, published 2014).

Biological target: T1, human ErbB3-Fc (R&D Systems) (human, UniProt P21860 20-643)
T1 construct: Bought protein; also called wild-type ErbB3-Fc fusion; immobilized ErbB3; not shown: Fc part of the bought fusion protein; not described
Assay: ELISA on ErbB3-Fc, soluble monovalent Sab (Example 42)

Binder | EC50 [nM]
2995-A01 (other) VH: EVQLLESGGGLVQPGGSLRLSCAASGFTFSSYWMHWVRQAPGKGLEWVAAISSSGTYTYYADSVKGRFTISRDNSKNTLYLQMNSLRAEDTAVYYCAKDNFILLNSWFDYWGQGTLVTVSS light: QPVLHQPPAMSSALGTTIRLTCTLRNDHDIGVYSVYWYQQRPGHPPRFLLRYFSQSDKSQGPQVPPRFSGSKDVARNRGYLSISELQPEDEAMYYCAMGARSSVTHVFGSGTQLTVLSQPKATPSVTLFPPSSEELQANKATLVCLMNDFYPGILTVTWKADGTPITQGVEMTTPSKQSNNKYAASSYLSLTPEQWRSRRSYSCQVMHEGSTVEKTVAPAECS | 0.071
2995-C05 (other, copies: 1 + 1) VH: EVQLLESGGGLVQPGGSLRLSCAASGFTFSDYWMHWVRQAPGKGLEWVAAISSGSSYTYYADSVKGRFTISRDNSKNTLYLQMNSLRAEDTAVYYCAKDNFILLNSWFDYWGQGTLVTVSS surrogate light: QPVLHQPPAMSSALGTTIRLTCTLRNDHDIGVYSVYWYQQRPGHPPRFLLRYFSQSDKSQGPQVPPRFSGSKDVARNRGYLSISELQPEDEAMYYCAMGARSSVTHVFGSGTQLTVLSQPKATPSVTLFPPSSEELQANKATLVCLMNDFYPGILTVTWKADGTPITQGVEMTTPSKQSNNKYAASSYLSLTPEQWRSRRSYSCQVMHEGSTVEKTVAPAECS | 0.015
2995-B04 (other) VH: EVQLLESGGGLVQPGGSLRLSCAASGFTFSNYWMHWVRQAPGKGLEWVALISNNGTYTYYADSVKGRFTISRDNSKNTLYLQMNSLRAEDTAVYYCAKDNFILLNSWFDYWGQGTLVTVSS light: QPVLHQPPAMSSALGTTIRLTCTLRNDHDIGVYSVYWYQQRPGHPPRFLLRYFSQSDKSQGPQVPPRFSGSKDVARNRGYLSISELQPEDEAMYYCAMGARSSVTHVFGSGTQLTVLSQPKATPSVTLFPPSSEELQANKATLVCLMNDFYPGILTVTWKADGTPITQGVEMTTPSKQSNNKYAASSYLSLTPEQWRSRRSYSCQVMHEGSTVEKTVAPAECS | 0.021
2995-A05 (other) VH: EVQLLESGGGLVQPGGSLRLSCAASGFTFSNYWMHWVRQAPGKGLEWVAAISNGSSYTYYADSVKGRFTISRDNSKNTLYLQMNSLRAEDTAVYYCAKDNFILLNSWFDYWGQGTLVTVSS light: QPVLHQPPAMSSALGTTIRLTCTLRNDHDIGVYSVYWYQQRPGHPPRFLLRYFSQSDKSQGPQVPPRFSGSKDVARNRGYLSISELQPEDEAMYYCAMGARSSVTHVFGSGTQLTVLSQPKATPSVTLFPPSSEELQANKATLVCLMNDFYPGILTVTWKADGTPITQGVEMTTPSKQSNNKYAASSYLSLTPEQWRSRRSYSCQVMHEGSTVEKTVAPAECS | 0.022
2995-B06 (other) VH: EVQLLESGGGLVQPGGSLRLSCAASGFTFSNYGMHWVRQAPGKGLEWVALISSGGAYTYYADSVKGRFTISRDNSKNTLYLQMNSLRAEDTAVYYCAKDNFILLNSWFDYWGQGTLVTVSS light: QPVLHQPPAMSSALGTTIRLTCTLRNDHDIGVYSVYWYQQRPGHPPRFLLRYFSQSDKSQGPQVPPRFSGSKDVARNRGYLSISELQPEDEAMYYCAMGARSSVTHVFGSGTQLTVLSQPKATPSVTLFPPSSEELQANKATLVCLMNDFYPGILTVTWKADGTPITQGVEMTTPSKQSNNKYAASSYLSLTPEQWRSRRSYSCQVMHEGSTVEKTVAPAECS | 0.01
2995-A09 (other) VH: EVQLLESGGGLVQPGGSLRLSCAASGFTFSSYWMHWVRQAPGKGLEWVAGISYGGTYTYYADSVKGRFTISRDNSKNTLYLQMNSLRAEDTAVYYCAKDNFILLNSWFDYWGQGTLVTVSS light: QPVLHQPPAMSSALGTTIRLTCTLRNDHDIGVYSVYWYQQRPGHPPRFLLRYFSQSDKSQGPQVPPRFSGSKDVARNRGYLSISELQPEDEAMYYCAMGARSSVTHVFGSGTQLTVLSQPKATPSVTLFPPSSEELQANKATLVCLMNDFYPGILTVTWKADGTPITQGVEMTTPSKQSNNKYAASSYLSLTPEQWRSRRSYSCQVMHEGSTVEKTVAPAECS | 0.045
2995-A06 (other, copies: 1 + 1) VH: EVQLLESGGGLVQPGGSLRLSCAASGFTFSSYWMHWVRQAPGKGLEWVAGISDGGAYTYYADSVKGRFTISRDNSKNTLYLQMNSLRAEDTAVYYCAKDNFILLNSWFDYWGQGTLVTVSS surrogate light: QPVLHQPPAMSSALGTTIRLTCTLRNDHDIGVYSVYWYQQRPGHPPRFLLRYFSQSDKSQGPQVPPRFSGSKDVARNRGYLSISELQPEDEAMYYCAMGARSSVTHVFGSGTQLTVLSQPKATPSVTLFPPSSEELQANKATLVCLMNDFYPGILTVTWKADGTPITQGVEMTTPSKQSNNKYAASSYLSLTPEQWRSRRSYSCQVMHEGSTVEKTVAPAECS | 0.032
2995-C02 (other, copies: 1 + 1) VH: EVQLLESGGGLVQPGGSLRLSCAASGFTFSNYWMNWVRQAPGKGLEWVANISSGGSYTYYADSVKGRFTISRDNSKNTLYLQMNSLRAEDTAVYYCAKDNFILLNSWFDYWGQGTLVTVSS surrogate light: QPVLHQPPAMSSALGTTIRLTCTLRNDHDIGVYSVYWYQQRPGHPPRFLLRYFSQSDKSQGPQVPPRFSGSKDVARNRGYLSISELQPEDEAMYYCAMGARSSVTHVFGSGTQLTVLSQPKATPSVTLFPPSSEELQANKATLVCLMNDFYPGILTVTWKADGTPITQGVEMTTPSKQSNNKYAASSYLSLTPEQWRSRRSYSCQVMHEGSTVEKTVAPAECS | 0.028
2995-A02 (other, copies: 1 + 1) VH: EVQLLESGGGLVQPGGSLRLSCAASGFTFSSYWMNWVRQAPGKGLEWVALISNGGGIKYYADSVKGRFTISRDNSKNTLYLQMNSLRAEDTAVYYCAKDNFILLNSWFDYWGQGTLVTVSS light: QPVLHQPPAMSSALGTTIRLTCTLRNDHDIGVYSVYWYQQRPGHPPRFLLRYFSQSDKSQGPQVPPRFSGSKDVARNRGYLSISELQPEDEAMYYCAMGARSSVTHVFGSGTQLTVLSQPKATPSVTLFPPSSEELQANKATLVCLMNDFYPGILTVTWKADGTPITQGVEMTTPSKQSNNKYAASSYLSLTPEQWRSRRSYSCQVMHEGSTVEKTVAPAECS | 0.018
2995-A08 (other) VH: EVQLLESGGGLVQPGGSLRLSCAASGFTFSSYWMHWVRQAPGKGLEWVAGISNGGSIIYYADSVKGRFTISRDNSKNTLYLQMNSLRAEDTAVYYCAKDNFILLNSWFDYWGQGTLVTVSS light: QPVLHQPPAMSSALGTTIRLTCTLRNDHDIGVYSVYWYQQRPGHPPRFLLRYFSQSDKSQGPQVPPRFSGSKDVARNRGYLSISELQPEDEAMYYCAMGARSSVTHVFGSGTQLTVLSQPKATPSVTLFPPSSEELQANKATLVCLMNDFYPGILTVTWKADGTPITQGVEMTTPSKQSNNKYAASSYLSLTPEQWRSRRSYSCQVMHEGSTVEKTVAPAECS | 0.02

The remaining lines, values ahead:

EC50 [nM] | Binder
0.022 | 2995-A07 (other) VH: EVQLLESGGGLVQPGGSLRLSCAASGFTFSSYWMHWVRQAPGKGLEWVAGISSGGAYTYYADSVKGRFTISRDNSKNTLYLQMNSLRAEDTAVYYCAKDNFILLNSWFDYWGQGTLVTVSS light: QPVLHQPPAMSSALGTTIRLTCTLRNDHDIGVYSVYWYQQRPGHPPRFLLRYFSQSDKSQGPQVPPRFSGSKDVARNRGYLSISELQPEDEAMYYCAMGARSSVTHVFGSGTQLTVLSQPKATPSVTLFPPSSEELQANKATLVCLMNDFYPGILTVTWKADGTPITQGVEMTTPSKQSNNKYAASSYLSLTPEQWRSRRSYSCQVMHEGSTVEKTVAPAECS
0.01 | 2995-A12 (other) VH: EVQLLESGGGLVQPGGSLRLSCAASGFTFSDYWMNWVRQAPGKGLEWVANISGGGGYIYYADSVKGRFTISRDNSKNTLYLQMNSLRAEDTAVYYCAKDNFILLNSWFDYWGQGTLVTVSS surrogate light: QPVLHQPPAMSSALGTTIRLTCTLRNDHDIGVYSVYWYQQRPGHPPRFLLRYFSQSDKSQGPQVPPRFSGSKDVARNRGYLSISELQPEDEAMYYCAMGARSSVTHVFGSGTQLTVLSQPKATPSVTLFPPSSEELQANKATLVCLMNDFYPGILTVTWKADGTPITQGVEMTTPSKQSNNKYAASSYLSLTPEQWRSRRSYSCQVMHEGSTVEKTVAPAECS
0.027 | 2995-C03 (other, copies: 1 + 1) VH: EVQLLESGGGLVQPGGSLRLSCAASGFTFSSYWMHWVRQAPGKGLEWVAGISGGGRYTYYADSVKGRFTISRDNSKNTLYLQMNSLRAEDTAVYYCAKDNFILLNSWFDYWGQGTLVTVSS surrogate light: QPVLHQPPAMSSALGTTIRLTCTLRNDHDIGVYSVYWYQQRPGHPPRFLLRYFSQSDKSQGPQVPPRFSGSKDVARNRGYLSISELQPEDEAMYYCAMGARSSVTHVFGSGTQLTVLSQPKATPSVTLFPPSSEELQANKATLVCLMNDFYPGILTVTWKADGTPITQGVEMTTPSKQSNNKYAASSYLSLTPEQWRSRRSYSCQVMHEGSTVEKTVAPAECS
0.016 | 2995-B02 (other, copies: 1 + 1) VH: EVQLLESGGGLVQPGGSLRLSCAASGFTFSDYWMHWVRQAPGKGLEWVAVISSNGRYTYYADSVKGRFTISRDNSKNTLYLQMNSLRAEDTAVYYCAKDNFILLNSWFDYWGQGTLVTVSS light: QPVLHQPPAMSSALGTTIRLTCTLRNDHDIGVYSVYWYQQRPGHPPRFLLRYFSQSDKSQGPQVPPRFSGSKDVARNRGYLSISELQPEDEAMYYCAMGARSSVTHVFGSGTQLTVLSQPKATPSVTLFPPSSEELQANKATLVCLMNDFYPGILTVTWKADGTPITQGVEMTTPSKQSNNKYAASSYLSLTPEQWRSRRSYSCQVMHEGSTVEKTVAPAECS
0.046 | 2995-B01 (other) VH: EVQLLESGGGLVQPGGSLRLSCAASGFTFSDYAMHWVRQAPGKGLEWVALISSGGRYKYYADSVKGRFTISRDNSKNTLYLQMNSLRAEDTAVYYCAKDNFILLNSWFDYWGQGTLVTVSS light: QPVLHQPPAMSSALGTTIRLTCTLRNDHDIGVYSVYWYQQRPGHPPRFLLRYFSQSDKSQGPQVPPRFSGSKDVARNRGYLSISELQPEDEAMYYCAMGARSSVTHVFGSGTQLTVLSQPKATPSVTLFPPSSEELQANKATLVCLMNDFYPGILTVTWKADGTPITQGVEMTTPSKQSNNKYAASSYLSLTPEQWRSRRSYSCQVMHEGSTVEKTVAPAECS
0.032 | 2995-B10 (other, copies: 1 + 1) VH: EVQLLESGGGLVQPGGSLRLSCAASGFTFSSYWMHWVRQAPGKGLEWVAAISAGSGYIYYADSVKGRFTISRDNSKNTLYLQMNSLRAEDTAVYYCAKDNFILLNSWFDYWGQGTLVTVSS surrogate light: QPVLHQPPAMSSALGTTIRLTCTLRNDHDIGVYSVYWYQQRPGHPPRFLLRYFSQSDKSQGPQVPPRFSGSKDVARNRGYLSISELQPEDEAMYYCAMGARSSVTHVFGSGTQLTVLSQPKATPSVTLFPPSSEELQANKATLVCLMNDFYPGILTVTWKADGTPITQGVEMTTPSKQSNNKYAASSYLSLTPEQWRSRRSYSCQVMHEGSTVEKTVAPAECS
